Measured values: patent US20170210812A1

Tests used:
[1] = biological target: wild-type EGFR expressed on cells (human) (UniProt P00533); assay: cell-based or functional assay
[2] = biological target: EGFRvIII expressed on cells (human) (UniProt P00533); assay: cell-based or functional assay

percentage of live target cells, parental LN229 with activated T cells, 0.01 nM antibody [1] [%]	percentage of live target cells, LN229-EGFRvIII with activated T cells, 0.01 nM antibody [2] [%]	percentage of live target cells, parental LN18 with activated T cells, 0.01 nM antibody [1] [%]	percentage of live target cells, DKMG with activated T cells, 1 nM antibody [2] [%]	percentage of live target cells, LN18-EGFRvIII with activated T cells, 0.01 nM antibody [2] [%]	Binder
100	35	–	–	–	42G9/CD3 biFc (bispecific antibody, part only; not given: anti-CD3 arm and Fc, V domains shown, part only) VH: QVTLKESGPVLLKPTETLTLTCTVSGFSLSNPRMGVSWIRQPPGKALEWFAHIFSTDEKSLKLSLRSRLTLSKDTSKSQVVLTMTNMAPVDSATYYCARDSSNYEGYFDFWGQGTLVTVSS VL: EVVLTQSPATLSVSPGERATLSCRASQSVRSNLAWYQQKSGQAPRLLIYGSTIRATGVPARFSGSGSGTEFTLTISSLQSEDFAVYYCQQYSDWPFTFGPGTKVDIK
–	–	100	35	20	h62G7-EQ/L6/CD3 biFc (bispecific antibody, part only; not given: anti-CD3 arm and Fc, V domains shown, part only) VH: QVQLVQSGAEVKKPGASVKVSCKASGYTFTDYTLHWVRQAPGQGLEWMGGIWPITGGTTYNQKFKGRVTMTRDTSTSTVYMELSSLRSEDTAVYYCARGEAQGSWGQGTLVTVSS VL: DVVMTQSPLSLPVTLGQPASISCKSSQSLLYSNGKTYLNWFQQRPGQSPRRLIYQVSKLDSGVPDRFSGSGSGTDFTLKISRVEAEDVGVYYCGQDTHFPLTFGGGTKVEIK
